Results reported in patent US6309872A, “Polypeptides having glucoamylase activity and nucleic acids encoding same” (Novozymes Biotech, Inc, priority 2000, dated 2001).

Substrate: OC[C@H]1O[C@H](O[C@H]2[C@H](O)[C@@H](O)[C@@H](O[C@H]3[C@H](O)[C@@H](O)C(O)O[C@@H]3CO)O[C@@H]2CO)[C@H](O)[C@@H](O)[C@@H]1O
Assay: purified protein, by the assay type
Details: other: maltotriose hydrolysis at pH 4, enzyme 11 μg/ml or 0.18 μM

B1: Thielavia terrestris ATCC 20627 glucoamylase, wild type, recombinant (expressed in Aspergillus oryzae), SEQ ID NO:2 (Thermothielavioides terrestris NRRL 8126) (protein)
chain: PEASRVRREGEVVKRSVDSFIATESPIALSNLLCNIGSTGCHASGVASGIVVASPDKTNPDYWYTWTRDSALTFKCVVDTFTNSYDASLQAEIQNYIVAQAHLQGVSNPSGSLSDGSGLGEPKFNVDMSQFTGAWGRPQRDGPALRAIALIAYSKWLISNGYTSTASSIVWPVIKNDLAYVAQYWNNTGFDLWEEVSGSSFFTVANQHRALVEGAALATSLGTSCSACSAVAPQILCFLQSFWSPSSGYILANINENNGRSAKDANTLLGSIHTFDPAAGCDAATFQPCSDRALANHKVVTDAFRSIYSINSGIAEGSAVAVGRYPEDSYFGGNPWYLNTLAAAEQLYDALYVWKKQGSITVTSTSLAFFKDFSSSITPGTYSSSTSTYTTLYNAISAYADGYMNIVAQYAQTNGSLSEQFSKTNGEPLSAYDLTWSYAAFLTAAARRAGVVPPSWGAASANSVPAQCSATSVVGSYTSATATSFPPSQTPASSTSAGSSPASSTTATATACSTPTAVAVTFNERVTTQWGQTIKVVGDAAALGGWDTSKAVPLSAAGYTASDPLWSGTVDLPAGLAVQYKYINVAADGGVTWEADPNHSFTVPAACGTTAVTRDDTWQ
Question: Which Km does the source give for B1 here?
Answer: 330 ± 70 µM

Question: What about the kcat of the same protein?
Answer: (5.5±0.5)×10^3 min^-1
